This data set can be described thus: label from the status in PepcDB records.

“MLSHMDGGTAGARVREVGWLAATLTALLLALLLEHYVIHEQMILPWIAVSPEVPPWMLGAQVVPEIIVCFLFGWRLRGLGWIVIYGAAAAALRQSFYALLTRIGASGHPETLFGPPSEFARTAPLVAVMYFMAFGLASMGAREPGPLPGARSRP”: the protein production entry is on record as “failed”.

For the sequence “MLSIIIPVYNEKGNILELTSRIKSALKNNEYEIVFVDDSTDETPKIIESLALKYNNIRLKHRKGKKGLSSAVIDGFKLARGDVLSVMDGDLQHPPEMLESMLFQMKKDTDIVICSRFVLGGKEEGLNIFRKFASFIARLIGKIFLKPLRKISDPTAGFFMLKRKVIKNRDLRAIGWKILIEILVMGDYKRVVELPYSFKRRKHEKSKFTISVQGQYLKQIVSLFIRSKKYNIKLEHHHHHH”, the protein production result is on record as “not failed”.

Consider “MLSIIVPSYNRKAEVPALLESLTQQTSSNFEVIIVDDCSKERVVVEQSYSFPVTVIRNETNQGAAESRNVGARTSKGDWLLFLDDDDCFMPEKCEKVLQVIEQNPNINFIYHPAKCEMVNEGFTYVTQPIEPQEISTERILLANKIGGMPMIAIKKEMFLKIGGLSTALRSLEDYDFLLKLLQEPSFTPYKINEPLTYCTFHTKRSSVSTDTTNTQKAIDYIREHYVKTVEQARNFDINASYILAYPHIMNLSRKAAKYYFDIFKKTKSIKQFIITLVILISPKLAINLKRLGK”, for which the protein production entry is given as “failed”.

“MLSIMTFREFMKENGYEVKTKFWEDFSLAERFGLSAIQDTFNRAFKEWKEDYEFLTELVLVLNHKIWQYHEKRPEFAELYNTLEEQTDQYAMENLKDEELSYFFDVTDLEHHHHHH”: the protein production result is given as “not failed”.

Consider “MLSKIRPKVKQPLERIGKTLASLGITPNQLTIIGFLITLLASYEFYLQNQILAGIILAVGAFLDALDGALARATGKVSKFGGFLDSTIDRLSDASILFGIALGGLVRWDVTFLTLIGSYMVSYSRCRAELAGSGTLAIGIAERGERIIIIFIASLFNAVKIGVYLVAILSWITFIQRVYEAKKRLEMG”, for which the protein production entry is “failed”.

For “MLSLAYGMVALIGYSVSFDKTTFRLLRGESNLFYTLAKWENNKLHVELPENIDKQSPTMTLIYDENGQLLWAQRDVPWLMKMIQPDWLKSNGFHEIEADVNDTSLLLSGDHSIQQQLQEVREDDDDAEMTHSVAVNVYPATSRMPKLTIVVVDTIPVELKSSYMVWSWFIYVLSANLLLVIPLLWVAAWWSLRPIEALAKEVRELEEHNRELLNPATTRELTSLVRNLNRLLKSERERYDKYRTTLTDLTHSLKTPLAVLQSTLRSLRSEKMSVSDAEPVMLEQISRISQQIGYYLHRASMHGGTLLSRELHPVAPLLDNLTSALNKVYQRKGVNISLDISPEISFVGEQNDFVEVMGNVLDNACKYCLEFVEISARQTDEHLYIVVEDDGPGIPLSKREVIFDRGQRVDTLRPGQGVGLAVAREITKQYEGKIVAGESMLGGARMEVIFGRQHSTPKDE”, the protein production result is on record as “failed”.

Consider “MLSLKSEVLARHLPLFNGKSILLFGNVRDRFADQIRSISSHVAIFSHYFDYARHYNDVEFGLDCTTPANLGVFYWTKNKQECHYQLLQWLSQTAIGQQMLIIGENRAGVRSVEKLLSPFGQIAKIDSARRCGLYHFELQTIPQFDCQKFWKSYRLADLTVLSLPAAFSSTELDAGSQLLLSSFTNQDRLTGNVLDLGCGAGVIGAYLKQRFPAISLTMSDIHSMAIHSAQATLAKNKLTGTVIASDVFSHINDRFDLIVSNPPFHDDIDTAYHTVESLIMQAKNHLNYGGELRIVANAFLPYPDLLDKAFGSHQVVTKSNKFKVYSARV”, for which the protein production entry is “failed”.

For the sequence “MLSLPPCRLAARRYRPLRQQNRGSSAVILYNAPSFFDCRFDCLANHRQRRWPRAGHPDRDDVMHTLEQLRAGKLCGARHLKLAENLTEFPPEIFSLKETLEVLDLTGNQLSRLPDGLAEFSKLRIIFCSENRFTELPEVLGRCPALTMVGFKANKIVTVPAASLPAGLRWLILTDNAVEQLPDELGQCGALQKLMLSGNRLRELPVTLANCQRLELVRIAANRLEALPHWLVRLPRLAWLAYAGNPFSDKQEQRLGQCASVADIPWDSLKVGELLGQGASGVIHRAELATPAGPRAVAVKCFKGAVTSDGLPRCELAVSLAAGRHPHLVGVEGRVGDHPSGIPALVMALIDPDFINLAGPPSLDSCTRDIYQADARFTPAALLAMVQGVASAALHLHGRGILHGDLYAHNMLHSLQEEGRLLLGDFGAASCYERTDGELAGLLERLEVRAFGCLLEELLARCAPCDDRLDALHALVDDCLAEVVAARPDFAEIAARLAAVAPVICAEPVLL”, the protein production result is recorded as “failed”.

On to “MLSNGKCRNNKNQVNGSLSPKMFYMRINDQIVTKYHKILTKKIREVVGTLQQPWESRRIKQAPQQPQETTSATITCDRSHTNYDLCSINGSCNLDLKTGTLTLMDPTSAPLVEKIRPYPKKADNWIMPRIRELTLTSGPLGLPRSCDITHDLPAIVFSAGGYTGSIYHDLMDGFIPLFITANSVYPDRDFIPVVVNAKEWWMPKYIDILGTFSKHKPILLLDKESVATTHCFTSAIVGLITHWPMTIDPTQIPNSKSLVDFHNLLEKAFTTNISTPKTHKPRLMLVSRYGNIGRVILNEQEIKEMLEDVGFEVIIFRPSKTTNLKEAYKLIKSSHGMVGVHGAALTHLLFLRPGSIFVQVVPLGLGWASKPCYESPAKTMKLEYLEYKVNVEESSLIEKYNRDDLVLKDPIAYRGMDWNATKMKVYLKEQDVSLDVNRFRKHMNEAYKKAKIFMDING”, for which the protein production entry is on record as “failed”.

For the sequence “MLSNILPLSIGAIFGTTARWLLNLAVPASLSPATGNLFANWTGALLIGIFAETVSHPQWKLLLITGFFGSLTTLSGFSLETVTLLQSNRPASALANIFLHTAGSLLLTWLGLKIGTAVK”, the protein production result was “failed”.

For “MLSPCCHGQSMKTKITGKTISRIVPAEKVYRIHDTLQPGLSIRVLPSGHASYMVTWARNKAATLGRVGVITLEQARTDASRYLADAHAIGEPVAITEKRTGAAMPTLDHFLTHTFEPWAAEHHRDAKNGNRAIRHSFEALLSIPLSSIDTKRVEQIRTAWLRAGLAPSTANRNITRLRGVLSRALEWGVLQEHPLKVRKLKVDDRSRVRYLSIEEETALREALEARSNEMRDARDSANKWRLERHKEPLADLRAVRYADHLEPLVVLSINTGVRRGEAFNLTWADVDLKNKLITVEGDTSKSGQTRHVPLNREALDTLTKWKEQRGGNGFVFPGQHGKRLDNVKKSWSGLLKLAKVERFRWHDLRHTFASKLVMAGVPLNTVRELLGHTDIKMTLRYAHLAPGTKAAAVELI”, the protein production result is “failed”.

Take “MLSVFVVNLRSNSAPFSFSRLLMHTTIVNERSLRTCNFPITLQDIRTLKELYRLKAETRDLRKPIVRNIMKQRVVGKGCLESLKNALYSLETIYIDDYTGQRLLRIDGMKQIEVDLTYEIRELQKDIYYLEYGEDRFIEYLAKFIPGFTDYVTEGVEMLRGKSFNAFITDRDGTTNNYCGRYRSSIQPIYNSVFLSRFAKNCCRYPMIVTSAPLKDFGILNVSINPEHIFVYAGSKGREFIDIDGQFHSFPIEPGKQELIRLLNERMQLLLLDPSFEKFNFIGSALQMKFGQTTIARQDITRSVNEAESAAFLEKIKGIVRDIDPEGKNFRIEDTGLDIEIILTIDVDPKTGMIRDFDKGDGLEFICRKMNIDHTGEPVLVCGDTSSDIPMLKKAMEMYDDVWAIFVTRDEKLMQRVREICPKSYMVPYPDILLTILGLLSL”: the protein production result is “failed”.

“MLSYYGRLSSEVYDIDKPIDHSFRDVEFYIDRLNLCRGHILEPATGTGRVLVPLLEKGFKVDGFDSSKDMLNICRDNCRKKGLNPKLFEAKMESFIQDTRYDAIIVPAGTFLLLHQRADSIRALQNFHKHLCSGGRLIIDILMQTDFSTGTVSTRTWVCSNGDLITLESKVVEVDYINQYTVSHNRYEKWREGVLIQTELERFPLRWYGLEEFKLILESTGFKDIVISSDYKFGQYPSNVKDVITFEAVAIN”: the protein production entry is listed as “failed”.

As to “MLTAPPKEAARPTLMPRAQSYKDLTHLPAPTGKIFVSVYNIQDETGQFKPYPASNFSTAVPQSATAMLVTALKDSRWFIPLERQGLQNLLNERKIIRAAQENGTVAINNRIPLQSLTAANIMVEGSIIGYESNVKSGGVGARYFGIGADTQYQLDQIAVNLRVVNVSTGEILSSVNTSKTILSYEVQAGVFRFIDYQRLLEGEVGYTSNEPVMLCLMSAIETGVIFLINDGIDRGLWDLQNKAERQNDILVKYRHMSVPPESLEHHHHHH”, the protein production result is “failed”.

These data come from a protein production outcome set (Wang et al. 2014).
